The text below walks through data of patent US20160075790A1 (Bristol-Myers Squibb, published 2016).

Assay [1] deals with T1, human CD40L, membrane-bound on cells (human, UniProt P29965 1-261).
T1 sequence: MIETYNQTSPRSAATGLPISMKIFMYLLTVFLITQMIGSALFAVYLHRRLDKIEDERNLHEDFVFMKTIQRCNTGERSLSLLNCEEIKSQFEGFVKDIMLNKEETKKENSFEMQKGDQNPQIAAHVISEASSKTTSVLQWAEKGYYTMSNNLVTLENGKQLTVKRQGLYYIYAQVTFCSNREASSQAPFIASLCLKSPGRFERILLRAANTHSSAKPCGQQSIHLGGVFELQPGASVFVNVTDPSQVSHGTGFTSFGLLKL
Description: cell-based or functional assay.

Assay [2] has as its target human isoleucine zipper-CD40L (IZ-hCD40L) (human) (UniProt P29965). Description: cell-based or functional assay.
Assay [3] concerns the target mouse CD40L (mouse) (UniProt P27548). Description: cell-based or functional assay.
For assay [4], the target named is human FcRn (human) (UniProt P55899). Description: SPR; captured on biot-IZ-hCD40L surface, soluble FcR as analyte; pH 6. A general note: In SPR one partner is held on a chip, and binding of the other changes the refractive index at the surface.
Sequence of human FcRn (human) (P55899 24-297 limits assumed, chain 1 of 2): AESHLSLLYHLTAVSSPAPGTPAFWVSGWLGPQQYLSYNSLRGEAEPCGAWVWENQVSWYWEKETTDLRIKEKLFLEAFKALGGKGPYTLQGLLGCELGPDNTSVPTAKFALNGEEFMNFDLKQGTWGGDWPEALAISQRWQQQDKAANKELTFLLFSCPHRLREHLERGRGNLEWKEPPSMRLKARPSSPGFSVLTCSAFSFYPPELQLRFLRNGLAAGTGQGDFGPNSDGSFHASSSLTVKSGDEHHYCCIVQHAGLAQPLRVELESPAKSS
Sequence of human FcRn (human) (P61769 21-119 limits assumed, chain 2 of 2, further chain): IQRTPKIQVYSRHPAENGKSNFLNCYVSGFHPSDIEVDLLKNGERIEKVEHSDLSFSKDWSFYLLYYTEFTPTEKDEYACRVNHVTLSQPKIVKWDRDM
In assay [5] the target is human CD16a (FcγRIIIa) (human) (UniProt P08637). Description: SPR; captured on biot-IZ-hCD40L surface, soluble FcR as analyte; pH 7.1.
Sequence of human CD16a (FcγRIIIa) (human) (P08637 17-208 limits assumed): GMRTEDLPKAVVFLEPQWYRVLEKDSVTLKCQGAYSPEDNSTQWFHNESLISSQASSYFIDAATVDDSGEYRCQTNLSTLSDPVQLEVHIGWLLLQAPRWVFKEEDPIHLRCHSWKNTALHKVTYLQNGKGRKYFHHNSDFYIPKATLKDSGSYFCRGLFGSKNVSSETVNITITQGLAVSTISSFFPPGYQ
The target of assay [6] is human CD64 (FcγRI) (human) (UniProt P12314). The description is as above.
Sequence of human CD64 (FcγRI) (human) (P12314 16-288 limits assumed): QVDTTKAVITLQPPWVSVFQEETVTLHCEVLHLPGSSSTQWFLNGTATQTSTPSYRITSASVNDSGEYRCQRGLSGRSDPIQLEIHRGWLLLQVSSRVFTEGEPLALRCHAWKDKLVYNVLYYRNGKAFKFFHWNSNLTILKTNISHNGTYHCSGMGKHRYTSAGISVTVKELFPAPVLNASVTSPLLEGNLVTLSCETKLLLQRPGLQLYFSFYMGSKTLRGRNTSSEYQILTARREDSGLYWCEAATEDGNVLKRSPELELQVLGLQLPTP
Assay [7] concerns the target cynomolgus monkey CD40L on cells (cynomolgus monkey) (UniProt G7Q1T4). Description: in vivo receptor occupancy on monkey PBMC, 20 mg/kg IV, 48 h post-dose.
For assay [8] the target is unchanged. Description: in vivo receptor occupancy on monkey PBMC, 20 mg/kg IV, through 1032 h.
Assay [9] addresses human CD32a (FcγRIIa), soluble (human) (UniProt P12318). Description: SPR; biphasic binding, steady state fit to the dominant binding event; pH 7.1.
Assay [10] has as its target T1, human CD40L, membrane-bound on cells. Description: cell-based or functional assay. The source holds these as a separate data set.
Assay [11] concerns the target human isoleucine zipper-CD40L (IZ-hCD40L) (human) (UniProt P29965). Description: cell-based or functional assay. The source holds these as a separate data set.
In assay [12] the target is T2, human isoleucine zipper-CD40L (IZ-hCD40L) (human, UniProt P29965 113-261).
T2 sequence: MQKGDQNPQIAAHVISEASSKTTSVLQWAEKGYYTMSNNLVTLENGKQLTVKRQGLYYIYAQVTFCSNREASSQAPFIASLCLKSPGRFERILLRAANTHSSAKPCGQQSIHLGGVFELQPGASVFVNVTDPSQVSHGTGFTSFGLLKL
Description: cell-based or functional assay.

The target in assay [13] is T1, human CD40L, membrane-bound on cells. Description: cell-based or functional assay. The source holds these as a separate data set.
Assay [14] has as its target T3, biotinylated IZ-hCD40L (biot-IZ-hCD40L) (human, UniProt P29965 113-261, biotinylated).
T3 construct: biotinylated version of IZ-hCD40L captured on streptavidin chip; also called biotinylated CD40L; not shown: N-terminal isoleucine zipper motif
T3 sequence: T2 sequence
Description: SPR (Biacore), 25 C, 1:1 Langmuir; monovalent dAb. An excerpt: The SPR experiments utilized a hCD40L construct containing an N-terminal isoleucine zipper motif (IZ-hCD40L) which facilitates the specific assembly of the CD40L molecule into the native trimeric form.

Assay [15] concerns the target T2, human isoleucine zipper-CD40L …. Description: cell-based or functional assay. This is another data set of the same source.
In assay [16] the target is T1, human CD40L, membrane-bound on cells. Description: cell-based or functional assay. This is another data set of the same source.
In assay [17] the target is T4, human CD40L monomer triple mutant (T211E, S222Y, H224K, [108-261]) (human, UniProt P29965 108-261).
T4 construct: also called monomeric human CD40L
T4 chain: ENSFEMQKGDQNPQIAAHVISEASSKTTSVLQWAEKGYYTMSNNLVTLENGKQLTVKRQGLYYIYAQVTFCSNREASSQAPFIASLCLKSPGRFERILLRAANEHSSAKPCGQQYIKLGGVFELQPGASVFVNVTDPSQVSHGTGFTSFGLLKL
Description: SPR; dAb-CT-long captured on anti-human IgG Fc surface, CD40L monomer as analyte.

Substitutions are numbered along the chain they refer to. “And” between values parts separate entries of the source, which are not always exact repeats. Equal entries are not always repeated. Where two headings read alike, the source gives them in different places. Where only a bound is given, the exact number is not on record here.

Sequence of mouse CD40L (mouse) (P27548 112-260 limits assumed): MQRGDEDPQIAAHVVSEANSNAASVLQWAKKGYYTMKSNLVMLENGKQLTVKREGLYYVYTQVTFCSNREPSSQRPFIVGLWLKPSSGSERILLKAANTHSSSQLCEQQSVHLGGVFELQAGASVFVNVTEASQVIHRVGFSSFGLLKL
Sequence of human CD32a (FcγRIIa), soluble (human) (P12318 36-218 limits assumed): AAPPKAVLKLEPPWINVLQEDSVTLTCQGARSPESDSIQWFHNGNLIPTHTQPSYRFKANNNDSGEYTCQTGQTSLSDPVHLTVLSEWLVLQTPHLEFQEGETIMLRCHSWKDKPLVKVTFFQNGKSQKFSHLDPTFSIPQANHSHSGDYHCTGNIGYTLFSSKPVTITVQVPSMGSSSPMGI

Turning to 5c8 mAb (antibody), in [1], the CHO-CD40L B cell Assay EC50 turned out to be 2 nM, the CHO-CD40L DC Assay IL-12 EC50 is 2 nM, the T-B MLR EC50 was found to be 0.54 nM and the T-B MLR IL-6 EC50 was 0.23 nM. In addition, in assay [2], the Trimer B cell Assay EC50 amounted to 8 nM.
For MR-1 (antibody), in assay [3], the CHO-CD40L B cell Assay EC50 came out at 0.6 nM, the CHO-CD40L DC Assay IL-6 EC50 was determined as 0.6 nM and the Trimer B cell Assay EC50 was 1.7 nM.
In the case of 5c8-IgG1 (antibody), the Kd (usually the equilibrium constant for the complex coming apart) in [4] was 590 nM; in assay [5], 240 nM; in assay [6], less than 0.05 nM; in assay [9], 100 nM. In assay [7], the mean peak receptor occupancy stood at 100%. This molecule also came in with a receptor occupancy in assay [8] greater than 97%.

B1: 2h572-619-N297Qlong Fc (Fc fusion, not shown: a dimerising Fc or GST)
chain: EVQLLESGGGLVQPGGSLRLSCAASGFTFNWQLMGWVRQAPGKGLEWVSGIEGPGDVTYYADSVKGRFTISRDNSKNTLYLQMNSLRAEDTAVYYCVKVGKDSRSDYRGQGTLVTVSS
Regarding B1, in [10], the CHO-hCD40L-driven DC Activation IL-12 EC50 was 1.1 nM; the CHO-hCD40L-driven Human B Cell Proliferation EC50 stood at 2 nM; the T-B cell MLR EC50 was 0.48 nM and 0.474 nM; the T-B cell MLR IL-6 EC50 is 0.22 nM and 0.11 nM. Besides, the hIZCD40L-driven Human B Cell Proliferation EC50 in [11] came to 0.98 nM.

B2: 2h572-608-N297Qshort Fc (Fc fusion, not shown: a dimerising Fc or GST)
chain: B1 chain with Q32E, V37A, D102E, R104N
In assay [10], B2 yielded a CHO-hCD40L-driven DC Activation IL-12 EC50 of 0.93 nM and a CHO-hCD40L-driven Human B Cell Proliferation EC50 of 2 nM. In assay [11], the hIZCD40L-driven Human B Cell Proliferation EC50 stood at 1 nM.

B3: 2h572-633-CT-Fc SP5 (Fc fusion, not shown: a dimerising Fc or GST)
chain: B1 chain with Q32E, V37A, S103A, R104K
Take B3: in assay [10], the CHO-hCD40L-driven DC Activation IL-6 EC50 is 1.5 nM, the CHO-hCD40L-driven DC Activation IL-12 EC50 was determined as 2.3 nM, the CHO-hCD40L-driven DC Activation TNF EC50 is 2.9 nM and the CHO-hCD40L-driven Human B Cell Proliferation EC50 was 1 nM. In assay [10], the T-B cell MLR EC50 is 0.161 nM and the T-B cell MLR IL-6 EC50 worked out at 0.13 nM. In assay [11], this molecule returned a hIZCD40L-driven Human B Cell Proliferation EC50 of 5 nM.

B4: BMS2h-572-633 (other)
VH: B1 chain with Q32E, V37A, S103A, R104K
notes: VH dAb, monovalent
With B4, the “hIZCD40L-driven Human B Cell Proliferation EC50” value in assay [12] was found to be 20 nM. Also, the “CHO-hCD40L-driven DC Activation IL-12 EC50” value in assay [13] was found to be 53 nM. In addition, in assay [14], the affinity, expressed as Kd, was 7.8 nM; the koff (in general, the rate constant with which the complex falls apart) is 0.0081 s⁻¹; the kon (usually the rate constant with which the complex forms) came out at 1e+06 M⁻¹ s⁻¹.

B5: 2h572-635-CT Long Fc (Fc fusion)
chain: B1 chain with Q32E, V37A, R104K
notes: not shown: linker and CT Long Fc (CT-L2)
Consider B5, for which the “hIZCD40L-driven Human B Cell Proliferation EC50” value in assay [15] amounted to 3 nM. For the same molecule, in [16], the “CHO-hCD40L-driven DC Activation IL-12 EC50” value was found to be 1.6 nM, the “CHO-hCD40L-driven Human B Cell Proliferation EC50” value was determined as 2 nM, the “T-B cell MLR EC50” value came out at 0.149 nM and the “T-B cell MLR IL-6 EC50” value worked out at 0.13 nM. In [17], the binding result is recorded as “no binding”.

B6: 2h572-633-CT Long Fc (Fc fusion)
chain: B1 chain with Q32E, V37A, S103A, R104K
notes: as for B5
Consider B6, for which the “hIZCD40L-driven Human B Cell Proliferation EC50” value in [15] worked out at 3 nM. In assay [16], the “CHO-hCD40L-driven DC Activation IL-6 EC50” value stood at 1.3 nM, the “CHO-hCD40L-driven DC Activation IL-12 EC50” value worked out at 1.9 nM, the “CHO-hCD40L-driven DC Activation IL-23 EC50” value worked out at 1.2 nM and the “CHO-hCD40L-driven DC Activation TNF EC50” value was found to be 1.7 nM. In assay [16], the “CHO-hCD40L-driven Human B Cell Proliferation EC50” value turned out to be 1 nM, the “T-B cell MLR EC50” value came out at 0.174 nM and the “T-B cell MLR IL-6 EC50” value came out at 0.13 nM. The binding result in assay [17] is “no binding”.

B7: 2h572-6-CT Long Fc (Fc fusion)
chain: B1 chain with D102E, R104N
notes: as for B5
On to B7, for which the “hIZCD40L-driven Human B Cell Proliferation EC50” value in assay [15] was 1 nM. For the same molecule, in [16], the “CHO-hCD40L-driven DC Activation IL-12 EC50” value came out at 3 nM, the “CHO-hCD40L-driven Human B Cell Proliferation EC50” value was determined as 6 nM, the “T-B cell MLR EC50” value was 13.6 nM and the “T-B cell MLR IL-6 EC50” value is 8.1 nM. Moreover, the binding result in [17] is reported as “no binding”.

B8: 2h572-608-CT Long Fc (Fc fusion)
chain: B1 chain with Q32E, V37A, D102E, R104N
notes: as for B5
With B8, the “hIZCD40L-driven Human B Cell Proliferation EC50” value in assay [15] came to 2 nM. In addition, in assay [16], the “CHO-hCD40L-driven DC Activation IL-12 EC50” value worked out at 1.6 nM, the “CHO-hCD40L-driven Human B Cell Proliferation EC50” value was 2 nM, the “T-B cell MLR EC50” value was 0.468 nM and the “T-B cell MLR IL-6 EC50” value is 0.38 nM. Besides, the binding result in assay [17] is reported as “no binding”.

B9: 2h572-619-Ctlong Fc (Fc fusion)
chain: B1 chain
notes: as for B5
Turning to B9, in assay [15], the “hIZCD40L-driven Human B Cell Proliferation EC50” value was 1.6 nM. Moreover, in [16], the “CHO-hCD40L-driven DC Activation IL-6 EC50” value came out at 1.5 nM, the “CHO-hCD40L-driven DC Activation IL-12 EC50” value was 1.4 nM, the “CHO-hCD40L-driven DC Activation IL-23 EC50” value was 1.5 nM and the “CHO-hCD40L-driven DC Activation TNF EC50” value amounted to 2 nM. In assay [16], the “CHO-hCD40L-driven Human B Cell Proliferation EC50” value was determined as 2 nM, the “T-B cell MLR EC50” value was 0.72 nM and the “T-B cell MLR IL-6 EC50” value is 0.43 nM. Besides, in [17], the binding result was “no binding”.

B10: 2h572-634-CT Long Fc (Fc fusion)
chain: B1 chain with Q32E, V37A
notes: as for B5
In the case of B10, the “hIZCD40L-driven Human B Cell Proliferation EC50” value in assay [15] is 2 nM. Also, in [16], the “CHO-hCD40L-driven DC Activation IL-12 EC50” value is 1.5 nM, the “CHO-hCD40L-driven Human B Cell Proliferation EC50” value worked out at 1 nM, the “T-B cell MLR EC50” value stood at 0.162 nM and the “T-B cell MLR IL-6 EC50” value came to 0.13 nM. The binding result in assay [17] is on record as “no binding”.

B11: 2h572-614-CT Long Fc (Fc fusion)
chain: B1 chain with S103A, R104K
notes: as for B5
For B11, the “hIZCD40L-driven Human B Cell Proliferation EC50” value in assay [15] turned out to be 2 nM. In addition, in [16], the “CHO-hCD40L-driven DC Activation IL-12 EC50” value was determined as 1.4 nM, the “CHO-hCD40L-driven Human B Cell Proliferation EC50” value worked out at 2 nM, the “T-B cell MLR EC50” value came to 0.283 nM and the “T-B cell MLR IL-6 EC50” value stood at 0.25 nM. Further, in assay [17], the binding result is “no binding”.

B12: 2h719-2 Fc (Fc fusion, not shown: a dimerising Fc or GST)
chain: EVQLLESGGGLVQPGGSLRLSCAASGFTFKRYEMMWVRQAPGKGLEWVSSISSDGSFTYYADSVKGRFTISRDNSKNTLYLQMNSLRAEDTAVYYCAEPFTEFDYWGHGTLVTVSS
Take B12: in [10], the CHO-hCD40L-driven DC Activation IL-12 EC50 turned out to be 0.13 nM, the CHO-hCD40L-driven Human B Cell Proliferation EC50 worked out at 0.7 nM and the T-B cell MLR EC50 worked out at 6 nM. The hIZCD40L-driven Human B Cell Proliferation EC50 in assay [11] came to 1 nM.

B13: 2h719-202-N297Qshort Fc (Fc fusion, not shown: a dimerising Fc or GST)
chain: B12 chain with R31K
For the molecule B13, in assay [10], the CHO-hCD40L-driven DC Activation IL-12 EC50 worked out at 0.66 nM and the CHO-hCD40L-driven Human B Cell Proliferation EC50 is 1.7 nM. Further, the hIZCD40L-driven Human B Cell Proliferation EC50 in assay [11] was 1.8 nM.
